Experimental data from patent US20150218283A1 (BIOSCEPTRE INTERNATIONAL, published 2015).

T1: E200-300 peptide (complex peptide epitope of human P2X7 receptor)
T1 peptide: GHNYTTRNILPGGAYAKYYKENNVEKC

T2: E200-300 peptide (complex peptide epitope of human P2X7 receptor) (human)
T2 construct: also called antigen E200-300
T2 peptide: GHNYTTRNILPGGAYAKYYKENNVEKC


Columns and labels:
[1] = target: T1, E200-300 peptide (complex peptide …); test: ELISA; Fab
[2] = target: T2, E200-300 peptide (complex peptide …); test: method not stated
[3] = target: T2, E200-300 peptide (complex peptide …); test: ELISA on the E200-300 epitope target

Binder	EC50 [3] [µg/mL]	further results
2F6 WT recombinant Fab (Fab, V domains shown) VH: DVKLVESGGGLVKLGGSLKLSCAASGFTFSSYYMSWVRQTPEKRLELVAAINSNGGSTYYPDTVKGRFTISRDNAKNTLYLQMSSLKSEDTAFYYCTRHYSSRFFDVWGAGTTVTVSS VL: DIVMTQSQKFMSTSVGDRVSVTCKASQNVGTNVAWYQQKPGQSPKALIYSASFRYSGVPDRFTGSGSGTDFTLTISNVQSEDLAEFFCQQYNSYPFTFGSGTRLEIK	–	EC50 [1]: ~250 µg/mL
2F6 hIgG1 (antibody, V domains shown) VH: DVKLVESGGGLVKLGGSLKLSCAASGFTFSSYYMSWVRQTPEKRLELVAAINSNGGSTYYPDTVKGRFTISRDNAKNTLYLQMSSLKSEDTAFYYCTRHYSSRFFDVWGAGTTVTVSS VL: DIVMTQSQKFMSTSVGDRVSVTCKASQNVGTNVAWYQQKPGQSPKALIYSASFRYSGVPDRFTGSGSGTDFTLTISNVQSEDLAEFFCQQYNSYPFTFGSGTRLEIK	–	Kd [2]: 50 nM
2F6 IgM antibody (original mouse hybridoma antibody, IgM class with Kappa light chains) (antibody, V domains shown, Mouse IgM, kappa light chain, grown in mouse ascites; also called original IgM; IgM form of the original antibody) VH: DVKLVESGGGLVKLGGSLKLSCAASGFTFSSYYMSWVRQTPEKRLELVAAINSNGGSTYYPDTVKGRFTISRDNAKNTLYLQMSSLKSEDTAFYYCTRHYSSRFFDVWGAGTTVTVSS VL: DIVMTQSQKFMSTSVGDRVSVTCKASQNVGTNVAWYQQKPGQSPKALIYSASFRYSGVPDRFTGSGSGTDFTLTISNVQSEDLAEFFCQQYNSYPFTFGSGTRLEIK	0.14	–
recombinant 2F6 mouse IgG2a (antibody, V domains shown, also called 2F6 mIgG2a; mouse IgG2a-2F6) VH: DVKLVESGGGLVKLGGSLKLSCAASGFTFSSYYMSWVRQTPEKRLELVAAINSNGGSTYYPDTVKGRFTISRDNAKNTLYLQMSSLKSEDTAFYYCTRHYSSRFFDVWGAGTTVTVSS VL: DIVMTQSQKFMSTSVGDRVSVTCKASQNVGTNVAWYQQKPGQSPKALIYSASFRYSGVPDRFTGSGSGTDFTLTISNVQSEDLAEFFCQQYNSYPFTFGSGTRLEIK	1.6	–
